From patent US20150344570A1 (published 2015)

T1: FcγRIIb, extracellular domain with C-terminal His tag (human, UniProt P31994 43-217)
T1 construct: extracellular domain; made in FreeStyle293 cells; analyte in the Biacore assay; also called 2b; FcgRIIb
T1 sequence (looked up): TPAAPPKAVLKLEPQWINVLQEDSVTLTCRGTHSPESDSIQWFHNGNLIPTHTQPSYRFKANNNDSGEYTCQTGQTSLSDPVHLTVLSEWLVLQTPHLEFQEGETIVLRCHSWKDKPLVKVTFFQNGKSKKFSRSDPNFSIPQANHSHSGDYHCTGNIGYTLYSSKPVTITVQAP

T2: FcγRIIa R (FcγRIIa allotype with Arg at position 131), extracellular domain with C-terminal His tag (human, UniProt P12318 34-217)
T2 construct: extracellular domain; made in FreeStyle293 cells; analyte in the Biacore assay; also called FcγRIIa type R; 2aR
T2 sequence (looked up): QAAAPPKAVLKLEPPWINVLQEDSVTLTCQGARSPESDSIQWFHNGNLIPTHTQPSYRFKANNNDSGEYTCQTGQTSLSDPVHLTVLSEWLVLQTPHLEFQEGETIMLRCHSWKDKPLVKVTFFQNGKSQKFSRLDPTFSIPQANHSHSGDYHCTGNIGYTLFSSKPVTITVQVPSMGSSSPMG

B1: GpH7-A5/GpH7-B3 variant E333_08L/GpL16-k0 (antibody, human IgG1, kappa)
heavy 1: not shown
heavy 2: not shown
light: DIVMTQSPLSLPVTPGEPASISCQASESLVHSNRNTYLHWYLQKPGQSPQLLIYKVSNRFSGVPDRFSGSGSGTDFTLKISRVEAEDVGVYYCSQNTHVPPTFGQGTKVEIERTVAAPSVFIFPPSDEQLKSGTASVVCLLNNFYPREAKVQWKVDNALQSGNSQESVTEQDSKDSTYSLSSTLTLSKADYEKHKVYACEVTHQGLSSPVTKSFNRGEC
notes: heterodimerized IgG1, mutation in one H chain only; also called He Ab
B2: GpH7-A5/GpH7-B3 variant E333_15Y/GpL16-k0 (antibody, human IgG1, kappa)
heavy 1: not shown
heavy 2: not shown
light: DIVMTQSPLSLPVTPGEPASISCQASESLVHSNRNTYLHWYLQKPGQSPQLLIYKVSNRFSGVPDRFSGSGSGTDFTLKISRVEAEDVGVYYCSQNTHVPPTFGQGTKVEIERTVAAPSVFIFPPSDEQLKSGTASVVCLLNNFYPREAKVQWKVDNALQSGNSQESVTEQDSKDSTYSLSSTLTLSKADYEKHKVYACEVTHQGLSSPVTKSFNRGEC
notes: as for B1
B3: GpH7-A5/GpH7-B3 variant N325_15Y/GpL16-k0 (antibody, human IgG1, kappa)
heavy 1: not shown
heavy 2: not shown
light: DIVMTQSPLSLPVTPGEPASISCQASESLVHSNRNTYLHWYLQKPGQSPQLLIYKVSNRFSGVPDRFSGSGSGTDFTLKISRVEAEDVGVYYCSQNTHVPPTFGQGTKVEIERTVAAPSVFIFPPSDEQLKSGTASVVCLLNNFYPREAKVQWKVDNALQSGNSQESVTEQDSKDSTYSLSSTLTLSKADYEKHKVYACEVTHQGLSSPVTKSFNRGEC
notes: as for B1
B4: GpH7-A5/GpH7-B3 variant E333_04F/GpL16-k0 (antibody, human IgG1, kappa)
heavy 1: not shown
heavy 2: not shown
light: DIVMTQSPLSLPVTPGEPASISCQASESLVHSNRNTYLHWYLQKPGQSPQLLIYKVSNRFSGVPDRFSGSGSGTDFTLKISRVEAEDVGVYYCSQNTHVPPTFGQGTKVEIERTVAAPSVFIFPPSDEQLKSGTASVVCLLNNFYPREAKVQWKVDNALQSGNSQESVTEQDSKDSTYSLSSTLTLSKADYEKHKVYACEVTHQGLSSPVTKSFNRGEC
notes: as for B1
B5: GpH7-A5/GpH7-B3 variant E333_09D/GpL16-k0 (antibody, human IgG1, kappa)
heavy 1: not shown
heavy 2: not shown
light: DIVMTQSPLSLPVTPGEPASISCQASESLVHSNRNTYLHWYLQKPGQSPQLLIYKVSNRFSGVPDRFSGSGSGTDFTLKISRVEAEDVGVYYCSQNTHVPPTFGQGTKVEIERTVAAPSVFIFPPSDEQLKSGTASVVCLLNNFYPREAKVQWKVDNALQSGNSQESVTEQDSKDSTYSLSSTLTLSKADYEKHKVYACEVTHQGLSSPVTKSFNRGEC
notes: as for B1
B6: GpH7-A5/GpH7-B3 variant N325_14T/GpL16-k0 (antibody, human IgG1, kappa)
heavy 1: not shown
heavy 2: not shown
light: DIVMTQSPLSLPVTPGEPASISCQASESLVHSNRNTYLHWYLQKPGQSPQLLIYKVSNRFSGVPDRFSGSGSGTDFTLKISRVEAEDVGVYYCSQNTHVPPTFGQGTKVEIERTVAAPSVFIFPPSDEQLKSGTASVVCLLNNFYPREAKVQWKVDNALQSGNSQESVTEQDSKDSTYSLSSTLTLSKADYEKHKVYACEVTHQGLSSPVTKSFNRGEC
notes: as for B1
B7: GpH7-A5/GpH7-B3 variant H268_11K/GpL16-k0 (antibody, human IgG1, kappa)
heavy 1: not shown
heavy 2: not shown
light: DIVMTQSPLSLPVTPGEPASISCQASESLVHSNRNTYLHWYLQKPGQSPQLLIYKVSNRFSGVPDRFSGSGSGTDFTLKISRVEAEDVGVYYCSQNTHVPPTFGQGTKVEIERTVAAPSVFIFPPSDEQLKSGTASVVCLLNNFYPREAKVQWKVDNALQSGNSQESVTEQDSKDSTYSLSSTLTLSKADYEKHKVYACEVTHQGLSSPVTKSFNRGEC
notes: as for B1
B8: GpH7-A5/GpH7-B3 variant A330_19Q/GpL16-k0 (antibody, human IgG1, kappa)
heavy 1: not shown
heavy 2: not shown
light: DIVMTQSPLSLPVTPGEPASISCQASESLVHSNRNTYLHWYLQKPGQSPQLLIYKVSNRFSGVPDRFSGSGSGTDFTLKISRVEAEDVGVYYCSQNTHVPPTFGQGTKVEIERTVAAPSVFIFPPSDEQLKSGTASVVCLLNNFYPREAKVQWKVDNALQSGNSQESVTEQDSKDSTYSLSSTLTLSKADYEKHKVYACEVTHQGLSSPVTKSFNRGEC
notes: as for B1
B9: GpH7-A5/GpH7-B3 variant L234_04F/GpL16-k0 (antibody, human IgG1, kappa)
heavy 1: not shown
heavy 2: not shown
light: DIVMTQSPLSLPVTPGEPASISCQASESLVHSNRNTYLHWYLQKPGQSPQLLIYKVSNRFSGVPDRFSGSGSGTDFTLKISRVEAEDVGVYYCSQNTHVPPTFGQGTKVEIERTVAAPSVFIFPPSDEQLKSGTASVVCLLNNFYPREAKVQWKVDNALQSGNSQESVTEQDSKDSTYSLSSTLTLSKADYEKHKVYACEVTHQGLSSPVTKSFNRGEC
notes: as for B1

How the values were obtained:
[1] = molecular target: T1, FcγRIIb, extracellular domain with …; assay: SPR (Biacore), antibody captured, FcγR analyte; vs GpH7-A5/GpH7-B3/GpL16-k0 = 100
Method: (§1) The heterodimerized antibodies He Abs in which one of the H chains was introduced with an alteration were assayed for their binding activities to each activating FcγR and inhibitory FcγR according to the method described in Example 4. […] The activating FcγRs in FIGS. 26, 27, 28, and 29 are FcγRIa, FcγRIIa (R), FcγRIIa (H), and FcγRIIIa, respectively.
(§2) Analysis of interaction between objective antibody and the FcγR was carried out using Biacore T100 (GE Healthcare). HBS-EP+ (GE Healthcare) was used as the running buffer, and the measurement temperature was set to 25° C. Chips produced by immobilizing the antigen peptide by the amine coupling method to a Series S Sencor Chip CM5 (GE Healthcare), or alternatively, chips produced by allowing preliminarily biotinylated antigen peptides to interact with and immobilize onto a Series S Sensor Chip SA (certified) (GE Healthcare) were used. Antibodies of interest were captured onto an antigen peptide-immobilized chip, and allowed to interact to each FcγR diluted with running buffer. To regenerate and repeatedly use the chip, the antibodies captured on the chip were washed off by reacting 10 mM glycine-HCl, pH 1.5.

[2] = molecular target: T2, FcγRIIa R (FcγRIIa allotype with Arg at …); assay: as above
Method: as §1, §2

Binder	He/Con_2b [1]	He/Con_2aR [2]
B1	95 relative (HeCon Ab = 100)	103 relative (HeCon Ab = 100)
B2	94.4 relative (HeCon Ab = 100)	101 relative (HeCon Ab = 100)
B3	99.5 relative (HeCon Ab = 100)	101 relative (HeCon Ab = 100)
B4	94.6 relative (HeCon Ab = 100)	102 relative (HeCon Ab = 100)
B5	94.3 relative (HeCon Ab = 100)	103 relative (HeCon Ab = 100)
B6	91.6 relative (HeCon Ab = 100)	105 relative (HeCon Ab = 100)
B7	83 relative (HeCon Ab = 100)	100 relative (HeCon Ab = 100)
B8	90.8 relative (HeCon Ab = 100)	104 relative (HeCon Ab = 100)
B9	99.8 relative (HeCon Ab = 100)	104 relative (HeCon Ab = 100)
